# Results published in patent US20230035748A1.
# No end group written: not given here.
# What was measured:
# Test in all cases: pull-down from MDA-MB-231 cell lysate with CT20p-biotin and streptavidin-agarose beads, excised gel band, mass spectrometry
# [1] = biological target: Hsp90 co-chaperone Cdc37 (human) (UniProt Q16543)
# Huntingtin (human) = Huntingtin (human) (UniProt P42858)
# Reticulocalbin-2 (human) = Reticulocalbin-2 (human) (UniProt Q14257)
# [2] = biological target: T-complex protein 1 subunit zeta (human) (UniProt P40227)
# [3] = biological target: Coatomer subunit beta (human) (UniProt P35606)
# [4] = biological target: Signal transducer and activator of transcription 1-alpha/beta (human) (UniProt P42224)
# [5] = biological target: Signal transducer and activator of transcription 3 (human) (UniProt P40763)
# [6] = biological target: T-complex protein 1 subunit alpha (human) (UniProt P17987)
# [7] = biological target: Cellular tumor antigen p53 (human) (UniProt P04637)
# [8] = biological target: Coatomer subunit gamma-1 (human) (UniProt Q9Y678)
# [9] = biological target: T-complex protein 1 subunit eta (human) (UniProt Q99832)
# [10] = biological target: T-complex protein 1 subunit delta (human) (UniProt P50991)
# [11] = biological target: T-complex protein 1 subunit epsilon (human) (UniProt P48643)
# [12] = biological target: T-complex protein 1 subunit gamma (human) (UniProt P49368)
# Chain of UniProt P42858 (P42858 whole entry): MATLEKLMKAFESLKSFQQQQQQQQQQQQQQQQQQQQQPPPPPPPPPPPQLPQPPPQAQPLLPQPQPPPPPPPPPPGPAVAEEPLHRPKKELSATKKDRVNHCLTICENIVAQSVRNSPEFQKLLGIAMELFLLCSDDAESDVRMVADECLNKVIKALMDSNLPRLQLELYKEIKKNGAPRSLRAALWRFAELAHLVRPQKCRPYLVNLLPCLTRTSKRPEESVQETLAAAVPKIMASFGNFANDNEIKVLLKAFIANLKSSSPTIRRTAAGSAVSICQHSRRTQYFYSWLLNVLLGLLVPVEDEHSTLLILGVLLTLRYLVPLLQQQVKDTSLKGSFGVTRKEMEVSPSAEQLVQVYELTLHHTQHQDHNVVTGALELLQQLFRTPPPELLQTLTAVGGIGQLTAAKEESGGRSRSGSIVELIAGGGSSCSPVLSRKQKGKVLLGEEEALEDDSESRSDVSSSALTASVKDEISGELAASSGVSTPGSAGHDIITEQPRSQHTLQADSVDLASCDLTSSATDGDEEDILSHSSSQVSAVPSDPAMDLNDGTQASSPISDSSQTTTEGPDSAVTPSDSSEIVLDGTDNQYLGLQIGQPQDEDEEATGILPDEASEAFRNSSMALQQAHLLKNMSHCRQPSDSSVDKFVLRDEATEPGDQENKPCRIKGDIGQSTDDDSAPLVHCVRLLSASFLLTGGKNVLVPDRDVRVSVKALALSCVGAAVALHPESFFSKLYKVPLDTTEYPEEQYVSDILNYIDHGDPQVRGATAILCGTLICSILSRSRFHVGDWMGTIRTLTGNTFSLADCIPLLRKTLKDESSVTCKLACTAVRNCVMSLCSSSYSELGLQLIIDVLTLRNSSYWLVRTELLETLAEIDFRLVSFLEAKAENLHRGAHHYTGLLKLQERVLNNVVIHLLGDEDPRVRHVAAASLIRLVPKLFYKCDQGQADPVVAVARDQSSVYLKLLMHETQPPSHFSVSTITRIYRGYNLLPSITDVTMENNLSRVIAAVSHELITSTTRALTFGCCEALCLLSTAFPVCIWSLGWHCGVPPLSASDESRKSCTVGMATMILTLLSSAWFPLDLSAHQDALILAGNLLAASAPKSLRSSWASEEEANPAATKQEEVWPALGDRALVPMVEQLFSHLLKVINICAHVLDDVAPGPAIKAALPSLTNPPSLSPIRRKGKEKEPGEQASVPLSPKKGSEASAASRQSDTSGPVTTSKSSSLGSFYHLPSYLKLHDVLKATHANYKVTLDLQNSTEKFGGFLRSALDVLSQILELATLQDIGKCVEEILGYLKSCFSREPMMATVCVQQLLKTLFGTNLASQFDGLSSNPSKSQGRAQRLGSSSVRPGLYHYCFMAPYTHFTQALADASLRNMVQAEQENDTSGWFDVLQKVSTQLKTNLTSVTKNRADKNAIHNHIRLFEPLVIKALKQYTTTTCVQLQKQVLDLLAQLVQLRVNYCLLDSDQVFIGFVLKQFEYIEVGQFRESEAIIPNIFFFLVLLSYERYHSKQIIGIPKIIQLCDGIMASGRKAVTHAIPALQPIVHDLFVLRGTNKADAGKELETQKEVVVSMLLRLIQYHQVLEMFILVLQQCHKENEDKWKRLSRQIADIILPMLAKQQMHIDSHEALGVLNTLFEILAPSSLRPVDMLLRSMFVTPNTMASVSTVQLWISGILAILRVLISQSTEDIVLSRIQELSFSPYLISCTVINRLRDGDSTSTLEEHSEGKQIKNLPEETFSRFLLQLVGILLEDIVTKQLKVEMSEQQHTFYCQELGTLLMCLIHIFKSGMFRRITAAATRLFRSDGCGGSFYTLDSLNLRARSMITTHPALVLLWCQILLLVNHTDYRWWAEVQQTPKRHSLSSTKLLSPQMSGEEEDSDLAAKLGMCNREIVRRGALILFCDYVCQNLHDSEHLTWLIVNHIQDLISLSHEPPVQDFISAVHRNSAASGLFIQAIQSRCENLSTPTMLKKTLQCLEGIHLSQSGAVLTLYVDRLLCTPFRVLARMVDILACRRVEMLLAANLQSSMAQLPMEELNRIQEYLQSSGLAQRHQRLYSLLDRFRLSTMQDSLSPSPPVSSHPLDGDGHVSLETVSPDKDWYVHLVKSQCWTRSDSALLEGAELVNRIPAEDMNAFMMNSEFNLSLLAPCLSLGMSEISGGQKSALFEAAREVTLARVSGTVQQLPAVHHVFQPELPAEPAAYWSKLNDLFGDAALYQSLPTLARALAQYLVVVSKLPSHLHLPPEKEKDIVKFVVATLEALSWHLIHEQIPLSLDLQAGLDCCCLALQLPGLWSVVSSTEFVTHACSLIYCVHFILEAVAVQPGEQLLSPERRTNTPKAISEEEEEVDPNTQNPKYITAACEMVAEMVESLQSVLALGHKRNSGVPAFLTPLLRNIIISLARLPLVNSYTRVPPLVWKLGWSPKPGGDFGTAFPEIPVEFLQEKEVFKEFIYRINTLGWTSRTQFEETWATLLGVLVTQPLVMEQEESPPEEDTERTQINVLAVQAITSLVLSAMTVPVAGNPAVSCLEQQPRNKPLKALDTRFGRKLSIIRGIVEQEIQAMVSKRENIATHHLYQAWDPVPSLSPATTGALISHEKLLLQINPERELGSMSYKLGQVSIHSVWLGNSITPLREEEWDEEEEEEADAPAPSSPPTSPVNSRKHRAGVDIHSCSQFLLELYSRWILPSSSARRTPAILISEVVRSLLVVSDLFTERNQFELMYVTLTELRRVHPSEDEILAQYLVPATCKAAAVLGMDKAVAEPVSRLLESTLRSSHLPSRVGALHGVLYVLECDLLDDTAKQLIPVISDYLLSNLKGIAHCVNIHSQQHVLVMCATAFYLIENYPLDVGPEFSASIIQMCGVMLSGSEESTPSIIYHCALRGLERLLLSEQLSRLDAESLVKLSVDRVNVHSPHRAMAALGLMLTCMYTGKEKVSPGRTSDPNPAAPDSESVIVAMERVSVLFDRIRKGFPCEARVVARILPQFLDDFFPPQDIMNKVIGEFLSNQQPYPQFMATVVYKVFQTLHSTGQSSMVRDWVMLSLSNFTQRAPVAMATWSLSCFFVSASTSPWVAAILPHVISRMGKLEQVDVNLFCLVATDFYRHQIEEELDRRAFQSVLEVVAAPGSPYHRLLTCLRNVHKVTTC
# Chain of UniProt P40763 (P40763 2-770 limits assumed): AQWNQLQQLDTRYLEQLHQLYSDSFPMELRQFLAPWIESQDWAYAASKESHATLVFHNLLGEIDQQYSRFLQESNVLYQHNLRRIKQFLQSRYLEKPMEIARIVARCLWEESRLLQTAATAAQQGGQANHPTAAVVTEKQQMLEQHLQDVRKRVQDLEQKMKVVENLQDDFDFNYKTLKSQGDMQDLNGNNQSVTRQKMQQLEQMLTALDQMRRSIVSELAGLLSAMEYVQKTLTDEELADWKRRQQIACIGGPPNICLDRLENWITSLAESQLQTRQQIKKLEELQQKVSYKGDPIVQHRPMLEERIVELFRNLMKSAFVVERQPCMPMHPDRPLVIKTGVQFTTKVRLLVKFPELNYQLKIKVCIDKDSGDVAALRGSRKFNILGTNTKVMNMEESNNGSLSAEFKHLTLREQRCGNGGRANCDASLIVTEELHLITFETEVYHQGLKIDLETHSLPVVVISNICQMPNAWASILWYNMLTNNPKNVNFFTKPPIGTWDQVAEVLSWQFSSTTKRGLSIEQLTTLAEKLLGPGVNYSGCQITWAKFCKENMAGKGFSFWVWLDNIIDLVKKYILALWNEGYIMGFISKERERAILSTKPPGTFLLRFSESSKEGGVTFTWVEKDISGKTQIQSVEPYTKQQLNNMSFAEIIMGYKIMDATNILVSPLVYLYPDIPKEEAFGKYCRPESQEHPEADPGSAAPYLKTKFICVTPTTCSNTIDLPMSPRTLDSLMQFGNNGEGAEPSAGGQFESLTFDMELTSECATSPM
# Chain of UniProt Q99832 (Q99832 whole entry, one chain of several): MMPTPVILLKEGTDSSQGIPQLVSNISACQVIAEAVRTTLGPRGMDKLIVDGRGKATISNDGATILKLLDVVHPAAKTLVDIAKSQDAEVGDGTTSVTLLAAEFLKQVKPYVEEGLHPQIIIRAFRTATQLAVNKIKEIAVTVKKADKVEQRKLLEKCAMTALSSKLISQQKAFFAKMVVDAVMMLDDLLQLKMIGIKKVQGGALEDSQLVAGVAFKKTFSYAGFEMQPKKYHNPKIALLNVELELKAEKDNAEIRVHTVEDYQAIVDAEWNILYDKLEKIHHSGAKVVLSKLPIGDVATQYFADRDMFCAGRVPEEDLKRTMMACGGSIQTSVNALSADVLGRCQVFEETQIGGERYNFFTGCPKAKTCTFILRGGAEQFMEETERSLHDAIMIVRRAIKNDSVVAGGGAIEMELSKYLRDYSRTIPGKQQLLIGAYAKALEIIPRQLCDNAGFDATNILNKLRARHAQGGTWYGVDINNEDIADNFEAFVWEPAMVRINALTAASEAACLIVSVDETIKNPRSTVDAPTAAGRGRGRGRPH
# Chain of UniProt P48643 (P48643 2-541 limits assumed, one chain of several): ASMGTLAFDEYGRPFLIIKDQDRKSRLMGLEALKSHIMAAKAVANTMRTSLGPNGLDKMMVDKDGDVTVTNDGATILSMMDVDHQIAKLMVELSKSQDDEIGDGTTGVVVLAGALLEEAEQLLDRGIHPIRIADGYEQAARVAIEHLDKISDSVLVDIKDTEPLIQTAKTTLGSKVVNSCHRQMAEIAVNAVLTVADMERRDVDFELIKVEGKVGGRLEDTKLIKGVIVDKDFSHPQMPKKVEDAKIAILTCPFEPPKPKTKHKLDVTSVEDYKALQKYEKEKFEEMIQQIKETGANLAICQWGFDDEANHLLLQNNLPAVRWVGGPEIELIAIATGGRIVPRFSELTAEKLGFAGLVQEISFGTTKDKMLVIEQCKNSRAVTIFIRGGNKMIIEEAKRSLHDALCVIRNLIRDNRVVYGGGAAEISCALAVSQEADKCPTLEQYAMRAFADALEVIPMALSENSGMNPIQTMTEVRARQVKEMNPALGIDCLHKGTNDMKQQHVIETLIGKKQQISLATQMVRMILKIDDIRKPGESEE
binder,measurement,setting,value
"VTIFVAGVLTASLTIWKKMG (also: biotin tag, site not given here) [biotin-tagged CT20p]",No. of unique peptides,[1],2 peptides
same,No. of unique peptides,Huntingtin (human),1 peptides
same,No. of unique peptides,Reticulocalbin-2 (human),10 peptides
same,No. of unique peptides,[2],2 peptides
same,No. of unique peptides,[3],6 peptides
same,No. of unique peptides,[4],7 peptides
same,No. of unique peptides,[5],2 peptides
same,No. of unique peptides,[6],2 peptides
same,No. of unique peptides,[7],1 peptides
same,No. of unique peptides,[8],6 peptides
same,No. of unique peptides,[9],3 peptides
same,No. of unique peptides,[10],4 peptides
same,No. of unique peptides,[11],2 peptides
same,No. of unique peptides,[12],3 peptides
